Experimental data published in patent US20130347134A1, “TRANSGENIC VON WILLEBRAND FACTOR ANIMALS AND USES THEREOF” (priority 2012, published 2013).

System: murine platelets
Assay: In vitro flow chamber, mouse platelets on recombinant VWF-A1, 800 s^-1
Type: cell-based
Details: wall shear rate 800 s^−1
Description: The protein was subsequently used in a series of in vitro flow chamber assays to assess function. Washed human or murine platelets (5×10^7/ml) were infused through a parallel plate flow chamber containing glass cover slips coated with either human VWF-A1 or mouse VWF-A1 protein (100 μg/ml final concentration) at a shear rate of 800 s^−1. After 5 minutes of continuous flow, adherent platelets were quantified.
In the case of the latter, the murine A1 fragment was inserted into pET-11b (Stratagene) and purified as previously described (Miura et al., 2000).
Support for this hypothesis is provided by mutagenesis studies. By analyzing the data obtained from the crystal structure of the murine VWF-A1 domain, the inventors have identified several residues that may participate in interactions with GPIb α (FIG. 15C). Residue 1326 was initially chosen for study and was mutated to the corresponding amino acid at the identical location in its human counterpart (from Arg to His). Subsequently, the ability of murine and human platelets to interact with this mutant protein substrate was evaluated at a wall shear rate of 800 s^−1. Incorporation of a histidine for arginine at position 1326 in murine VWF-A1 reduced murine platelet adhesion by about 5-fold and increased translocation velocities of cells by about 7-fold as compared to the WT mouse protein (FIGS. 13 and 16). […]

B1: His-tag M VWF-A1: recombinant murine VWF-A1 with N-terminus His tag (protein)
chain: QEPGGLVAPPTDAPVSSTTPYVEDTPEPPLHNFYCSKLLDLVFLLDGSSMLSEAEFEVLKAFVVGMMERLHISQKRIRVAVVEYHDGSRAYLELKARKRPSELRRITSQIKYTGSQVASTSEVLKYTLFQIFGKIDRPEASHITLLLTASQEPPRMARNLVRYVQGLKKKKVIVIPVGIGPHASLKQIRLIEKQAPENKAFLLSGVDELEQRRDEIVSYLCDLAPEAPAPTQPP
- platelets that adhered to and translocated: 449±53 platelets/mm^2
